# IntAct's records for PubMed 20818436
# B1: Zinc finger protein GLI1 (Homo sapiens), P08151 (parent)
# chain: MFNSMTPPPISSYGEPCCLRPLPSQGAPSVGTEGLSGPPFCHQANLMSGPHSYGPARETNSCTEGPLFSSPRSAVKLTKKRALSISPLSDASLDLQTVIRTSPSSLVAFINSRCTSPGGSYGHLSIGTMSPSLGFPAQMNHQKGPSPSFGVQPCGPHDSARGGMIPHPQSRGPFPTCQLKSELDMLVGKCREEPLEGDMSSPNSTGIQDPLLGMLDGREDLEREEKREPESVYETDCRWDGCSQEFDSQEQLVHHINSEHIHGERKEFVCHWGGCSRELRPFKAQYMLVVHMRRHTGEKPHKCTFEGCRKSYSRLENLKTHLRSHTGEKPYMCEHEGCSKAFSNASDRAKHQNRTHSNEKPYVCKLPGCTKRYTDPSSLRKHVKTVHGPDAHVTKRHRGDGPLPRAPSISTVEPKREREGGPIREESRLTVPEGAMKPQPSPGAQSSCSSDHSPAGSAANTDSGVEMTGNAGGSTEDLSSLDEGPCIAGTGLSTLRRLENLRLDQLHQLRPIGTRGLKLPSLSHTGTTVSRRVGPPVSLERRSSSSSSISSAYTVSRRSSLASPFPPGSPPENGASSLPGLMPAQHYLLRARYASARGGGTSPTAASSLDRIGGLPMPPWRSRAEYPGYNPNAGVTRRASDPAQAADRPAPARVQRFKSLGCVHTPPTVAGGGQNFDPYLPTSVYSPQPPSITENAAMDARGLQEEPEVGTSMVGSGLNPYMDFPPTDTLGYGGPEGAAAEPYGARGPGSLPLGPGPPTNYGPNPCPQQASYPDPTQETWGEFPSHSGLYPGPKALGGTYSQCPRLEHYGQVQVKPEQGCPVGSDSTGLAPCLNAHPSEGPPHPQPLFSHYPQPSPPQYLQSGPYTQPPPDYLPSEPRPCLDFDSPTHSTGQLKAQLVCNYVQSQQELLWEGGGREDAPAQEPSYQSPKFLGGSQVSPSRAKAPVNTYGPGFGPNLPNHKSGSYPTPSPCHENFVVGANRASHRAAAPPRLLPPLPTCYGPLKVGGTNPSCGHPEVGRLGGGPALYPPPEGQVCNPLDSLDLDNTQLDFVAILDEPQGLSPPPSHDQRGSSGHTPPPSGPPNMAVGNMSVLLRSLPGETEFLNSSA
# Variants of: B1
# Details: with itch_human ITCH
row,Variant,effect of a mutation on the interaction
1,Y859F;Y872F;S1060A,disrupting interaction
